Measurements taken from publication PMC6547421, “A unique exonuclease ExoG cleaves between RNA and DNA in mitochondrial DNA replication” (Nucleic Acids Research, 2019).
Changes are numbered by the printed parent chain. In names and notes the source's numbering stands.

T1: ExoG-H140A/F168A (Homo sapiens, UniProt Q9Y2C4 42-368, H140A;F168A)
T1 sequence: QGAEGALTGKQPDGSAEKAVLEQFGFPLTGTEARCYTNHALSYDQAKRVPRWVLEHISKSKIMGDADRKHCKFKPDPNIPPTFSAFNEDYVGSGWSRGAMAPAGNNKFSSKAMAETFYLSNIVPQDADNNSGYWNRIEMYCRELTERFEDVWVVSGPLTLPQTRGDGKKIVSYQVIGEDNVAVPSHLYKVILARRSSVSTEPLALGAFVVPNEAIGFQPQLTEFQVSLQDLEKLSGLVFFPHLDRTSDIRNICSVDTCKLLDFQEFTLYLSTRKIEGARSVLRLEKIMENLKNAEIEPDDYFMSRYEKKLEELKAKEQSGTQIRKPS

T2: ExoG-H140A (catalytically dead) (Homo sapiens, UniProt Q9Y2C4 42-368, H140A)
T2 sequence: T1 sequence with A127F

T3: ExoG-H140A/N176A (Homo sapiens, UniProt Q9Y2C4 42-368, H140A;N176A)
T3 sequence: T1 sequence with A127F, N135A

B1: R2-DNA/DNA (mixed)
DNA 1: GCTTAACGCTGACTCGCTAC
DNA 2: GTAGCGAGTCAGCGTTAAGCACTATCATAGCCATCTGCCATTACTG
modifications: strand 1 nt 1-2 (GC) are ribonucleotides, rest DNA; 5'-phosphate on strand 1
B2: RNA/DNA (DNA:RNA)
RNA: GCUUAACGCUGACUCGCUAC
DNA: B1 DNA 2
modifications: strand 1 RNA with 5'-phosphate; strand 2 DNA
B3: DNA/DNA (dsDNA)
DNA 1: GCTTAACGCTGACTCGCTAC
DNA 2: B1 DNA 2
modifications: 5'-phosphate on strand 1
B4: 12-nt R2-DNA/DNA chimeric duplex (crystal) (mixed)
DNA 1: CGGGATGTCACG
DNA 2: CGTGACATCCCG
modifications: two 5'-end ribonucleotides and 5'-phosphate on scissile strand; complement DNA 5'-OH
B5: 12-bp palindromic DNA (crystal) (dsDNA)
DNA 1: CGGGATATCCCG
DNA 2: CGGGATATCCCG
modifications: 5'-OH and 3'-OH
B6: human ExoG-H140A (catalytically dead mutant of Exonuclease G, without the N-terminal MLS) (enzyme, UniProt Q9Y2C4 42-368, looked up)
chain: T1 sequence with A127F
notes: source: E. coli Rosetta 2 (DE3) pLysS, purified (HisTrap HP, Superdex 200 gel filtration)
B7: 12-bp RNA/DNA hybrid (crystal) (DNA:RNA)
RNA: CGGGAUGUCACG
DNA: CGTGACATCCCG
modifications: 5'-phosphate on RNA strand; DNA strand 5'-OH

Experiments:
ExoG-H140A/F168A = target: T1, ExoG-H140A/F168A; assay: fluorescence polarization; 2.5 mM Mg2+; FP: 10 nM FAM substrate, 10 mM HEPES pH 7.4, 150 mM NaCl, 2.5 mM MgCl2; temperature not stated; details: protein: recombinant; tags: N-terminal His; chain copies: 2; label: 3'-FAM strand 1; 5'-biotin strand 2; 20-bp duplex, 26-nt 3' overhang on strand 2
[1] = target: T2, ExoG-H140A (catalytically dead); assay: as above; details: protein: recombinant; tags: N-terminal His; chain copies: 2; label: 3'-FAM strand 1; 5'-biotin strand 2; 20-bp duplex, 26-nt 3' overhang on strand 2
ExoG-H140A/N176A = target: T3, ExoG-H140A/N176A; assay: as above; details: protein: recombinant; tags: N-terminal His; chain copies: 2; label: 3'-FAM strand 1; 5'-biotin strand 2; 20-bp duplex, 26-nt 3' overhang on strand 2
[2] = target: T2, ExoG-H140A (catalytically dead); assay: crystal structure (3.0 A); Mg2+; one duplex per protomer; FP: 10 nM FAM substrate, 10 mM HEPES pH 7.4, 150 mM NaCl, 2.5 mM MgCl2; temperature not stated; details: protein: recombinant; tags: N-terminal His; chain copies: 2; 12-bp duplex
[3] = target: T2, ExoG-H140A (catalytically dead); assay: crystal structure (2.3 A); Mg2+; one duplex per protomer; FP: 10 nM FAM substrate, 10 mM HEPES pH 7.4, 150 mM NaCl, 2.5 mM MgCl2; temperature not stated; details: protein: recombinant; tags: N-terminal His; chain copies: 2; blunt, self-complementary, 2 copies of strand
[4] = target: the molecule itself; assay: crystal structure; ExoG-H140A co-crystallised with a 12-bp dsDNA, an RNA/DNA hybrid duplex or an R2-DNA/DNA chimeric duplex (protein to substrate 1:1.2, 2 mM MgCl2), hanging drop vapor diffusion at 4°C; ExoG dimer in the asymmetric unit, each protomer bound to one duplex
[5] = target: T2, ExoG-H140A (catalytically dead); assay: crystal structure (2.8 A); Mg2+; one duplex per protomer; FP: 10 nM FAM substrate, 10 mM HEPES pH 7.4, 150 mM NaCl, 2.5 mM MgCl2; temperature not stated; details: protein: recombinant; tags: N-terminal His; chain copies: 2; 12-bp duplex

Binder | Kd (ExoG-H140A/F168A) | Kd [1] | Kd (ExoG-H140A/N176A) | other results
B1 | 3150 ± 259 nM | 1030 ± 86 nM | 930 ± 63 nM | 
B2 | 250 ± 14 nM | 190 ± 10 nM | 120 ± 8 nM | 
B3 | 3930 ± 188 nM | 1320 ± 79 nM | 950 ± 63 nM | 
B4 |  |  |  | binding result [2]: binds
B5 |  |  |  | binding result [3]: binds
B6 |  |  |  | binding result [4]: binds
B7 |  |  |  | binding result [5]: binds
